Key:
[1] = molecular target: SARS-CoV-2 papain-like protease (PLpro) wild type (SARS-CoV-2)
[2] = molecular target: SARS-CoV-2 PLpro TR (truncated form lacking the Ubl domain) (SARS-CoV-2)

Question: With “human ISG15 (interferon-stimulated gene product 15) (from UniProt P05161 1-157) (natural protein)” as the substance, how does the IC50 of free ISG15 for inhibition of ISG15-AMC cleavage [1] read?
Answer: 2050 nM

Question: What about the IC50 of free ISG15 for inhibition of Ub-AMC cleavage [1] of the same substance?
Answer: 1590 nM

Question: And the IC50 of free ISG15 for inhibition of ISG15-AMC cleavage [2]?
Answer: 2050 nM

Question: And the IC50 of free ISG15 for inhibition of Ub-AMC cleavage [2]?
Answer: 1060 nM
